Numbering of substitutions follows the chain as printed.

The target in test [1] is SARS-CoV-2 spike protein receptor binding domain (RBD) (SARS-CoV-2, UniProt P0DTC2 319-539). As to the kind of experiment: ELISA, RBD coated on plate, mAb titrated. (An ELISA detects its analyte on a solid surface through an enzyme-linked reagent.)
The target of test [2] is SARS-CoV-2 spike receptor binding domain (RBD), S protein residues 319-539 (SARS-CoV-2, UniProt P0DTC2 319-539). As to the kind of experiment: ELISA on coated RBD.

B1: C538 (antibody, V domains shown)
VH: QLQLQESGPGLVKPSETLSLTCTVSGGSISSSSYYWAWIRQPPGKGLEWIGNIYYSGITYYSPSLKSRVTISVDTSKNQFSLKLRSVTAADTAVYYCARQHRYGSGSSELLWGQGTLVTVSS
VL: QSALTQPPSASGSPGQSVTISCTGTSSDVGSYNYVSWYQQHPGKAPKLMIYEVTKRPSGVPDRFSGSKSGNTASLTVSGLQADDEADYYCSSYAGSSNLIFGGGTKLTVL
Usually EC50 stands for the concentration at which the effect is half-maximal. In test [1], B1 showed a 50% effective concentration (EC50) of 3.95 ng/mL.

B2: C513 (antibody, V domains shown)
VH: EVQLLESGGGLVQPGGSLRLSCVASGFSFSTYAMSWVRQAPGQGLEWVSTITGTSIGTYYADSVKGRFTISRDNSKNTVFLQMKSLRAEDAAVYYCANHPLASGDEYYYYYMDVWGKGTTVTVSS
VL: EIVLTQSPDTLSLSPGERATLSCRASQSVHSKQLAWYQQKPGQAPRLLIYGASSRATGIPDRFSGSGSGTDFTLTISRLEPEDFAVYYCQQYGSIRALTFGGGTKVEIK
Turning to B2, the EC50 in test [2] stood at 1.31 ng/mL.

B3: C537 (antibody, V domains shown)
VH: QLQLQESGPGLVKPSETLSLTCTVSGGAISSRNYHWGWIRQPPGKGLEWIGSIYYSGSTYYSPSLKSRVTISVDTSKNQFSLRLSSVTAADTAVYYCARLETSGWYTEDVFDIWGQGTMVTVSS
VL: DIQMTQSPSSLSASVGDRVTITCRASQSISSYLNWYQQKPGKAPKLLIYAASSLQSGVPSRFSGSGSGTDFTLTISSLLPEDFATYYCQRSYSAMYTFGQGTKLEIK
The molecule B3 yielded an EC50 in test [1] of 41.9 ng/mL.

B4: C543 (antibody, V domains shown)
VH: QVQLVESGGGVVQPGRSLRLSCTASGFTFSTAGMHWVRQAPGKGLEWVAVISYDGSNKDYADSVKGRFTISRDNSKSTLYLQMNSLRPEDTAVYYCAKDTPGGDDIMTGWGLYGMDVWGQGTTVTVSS
VL: B3 VL with Q37H, S52I, S67F, L79Q, T85I, R90Q, A94T, M95P, Y96W, L104V
In test [1], B4 registered an EC50 of 1.28 ng/mL. This EC50 is about 33-fold lower than that of the molecule before.

B5: C547 (antibody, V domains shown)
VH: B4 VH with T23A, T31S, A32Y, D59Y, S77N, P88A, M107L
VL: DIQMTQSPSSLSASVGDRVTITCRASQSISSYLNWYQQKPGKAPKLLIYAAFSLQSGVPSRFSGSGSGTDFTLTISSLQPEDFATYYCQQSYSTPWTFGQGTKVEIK
B5 gave an EC50 in test [1] of 1.78 ng/mL.

B6: C536 (antibody, V domains shown)
VH: QVQLVESGGGLVKPGRSLRLSCTVSGFTFGAYAMSWFRQAPGKGLEWVGFIRSKTYGGTTEYAASLKGRFTISRDDSKSIAFLQMNSLKTEDTAVYFCSRGGYYDGSPYYWNRPDAFDIWGLGTMVTVS
VL: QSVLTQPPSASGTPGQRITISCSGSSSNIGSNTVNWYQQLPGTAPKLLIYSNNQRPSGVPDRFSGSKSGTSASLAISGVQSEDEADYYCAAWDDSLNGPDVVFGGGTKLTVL
Consider B6, for which, in test [1], the EC50 was found to be 1.88 ng/mL.

B7: C540 (antibody, V domains shown)
VH: EVQLVESGGGLVQPGGSLRLSCAASGFTFRNYDMHWVRQVAGKGLEWVSAIGTSGDTYYPDSVKGRFTISRENAKNSVYLQMNNLRAGDTAVYFCVRDREISGWTGWYFDLWGRGTLVTVSS
VL: DIQMTQSPSSLSASVGDRVTITCRASQTIHNYLNWYQQIPGKAPRLLIYATNTLQSGVPSRFSGSGSGTDFTLTITGLQPEDFATYYCQQSYSTPPITFGQGTRLEIK
As for B7, in test [1], the EC50 amounted to 2.9 ng/mL.

B8: C533 (antibody, V domains shown)
VH: EVQLVESGGSLVKPGGSLRLSCVASGLTFNHAWMSWVRQAPGKGLEWVGRIKSKIDGGTTDYAAPVKGRFTISRDDSKSTQYLQMNSLKTEDTAVYYCTTDCFWRLGGTTCYEHDAFDVWGQGTMVTVSS
VL: DIQMTQSPSSLSASVGDRVTITCRASQAIATFLNWYQQKPGKAPKLLIYAASSLQSGVPSRFSGSGSGTDFTLTISNLQPEDFATYYCQQSYNSLHFGGGTKVEIK
For B8, in test [1], the EC50 came out at 1.61 ng/mL. This EC50 is about 1.8-fold lower than that of the molecule before.

B9: C132 (antibody, V domains shown)
VH: QVQLQESGPGLVKPSGTLSLTCAVSGGSISSNNWWSCVRQPPGKGLEWIGEIYHSGSTNYNPSLKSRVTISVDKSKNQFSLKLSSVTAADTAVYYCARGGDTAMGPEYFDYWGQGTLVTVSS
VL: QSALTQPASVSGSPGQSITISCTGTSSDVGGYNYVSWYQQHPGKAPKLMIYDVSNRPSGVSNRFSGSKSGNTASLTISGLQAEDEADYYCSSYTSSSTLLFGGGTKLTVL
In the case of B9, a half-maximal response in test [2] (EC50) required 3.56 ng/mL.

B10: C512 (antibody, V domains shown)
VH: B9 VH with G26A, C37W, I52V, S55N, S57N, T58I, I70L, R98K, T102R, Y111S
VL: B9 VL with G31A, Y32N, S54N, N55E, A82T, Y93F, T94A
Consider B10, for which a half-maximal response in test [2] (EC50) required 1.68 ng/mL.

B11: C548 (antibody, V domains shown)
VH: QVQLVQSGAEVKKPGSSVKVSCKASGGTFSSYAISWVRQAPGQGLEWMGGIIPIFGTANYAQKFQGRVTITADESTSTAYMELSSLRSEDTAVYYCARREAYGPRDYYYYYGMDVWGQGTTVTVSS
VL: QSALTQPPSASASLGASVTLTCTLSSGYSNYKVDWYQQRPGKGPRFVMRVGTGGIVGSKGDGIPDRFSVLGSGLNRYLTIKNIQEEDESDYHCGADQGSGSNFVGVFGGGTKLTVL
As to B11, the EC50 in test [1] worked out at 1.72 ng/mL.

B12: C546 (antibody, V domains shown)
VH: EVQLLESGGGLVHPGGSLRLSCAASGFTFSTYAMHWVRQAPGKGLEWVSAISGSGTGTFYADSVKGRFSISRDNSKNTLYLQMNSLRAEDTAVYYCATERIAVSDTRMYNWFDPWGQGTLVTVSS
VL: DIQMTQSPSSLSASVGDRVTLTCRASQGISTYLNWYQQKPGKAPNLLIYAASSLQSGVPSRFSGSGSGTDFTLTISSLQPEDFATYYCQQSYSAPPWTFGQGTKVEIK
For B12, in test [1], the concentration giving a half-maximal response (EC50) worked out at 3.57 ng/mL. This EC50 lies about 2.1-fold higher than the previous one.

B13: C535 (antibody, V domains shown)
VH: EVQLVESGGALVQPGRSLRLSCAASGFTFDDYAMHWVRQAPGKGLEWVSSISWNGVSIGYADSVRGRFTISRDNAKNSLYLQMNSLKIGDTAFYYCARGLDGSSSASPDSWGQGTLVTVSS
VL: DIQMTQSPSSVSASVGDRVTITCRASQGIGSWLAWYQQKPGKAPKLLIYLASSLQSGVPSRFSGSGSGTYFTLTISGLQPEDFATYYCQQGNSFPLTFGGGTKVEIK
Turning to B13, in test [1], the midpoint of the response, the EC50, lay at 2.46 ng/mL.

B14: C073 (antibody, V domains shown)
VH: QLQLQESGPGLVKPSETLSLTCTVSGASIPSSTSYWGWIRQPPGKGLEWIGSIYYTGSTYYNPSLKSRVTISVDTSKNHFSLILSSVTAADTAVYYCARRSITLAGRDCLDFWGQGTLVTVSS
VL: DIQLTQSPSSLSASVGDRLTITCRASQSITTSLNWYQQKPGKAPKLLIYAASSLQSGVPSRFSGSGSGTDFTLAISSLQPEDFATYYCQQSYIPLLTFGGGTKVDIK
In test [2], B14 returned an EC50 of 20.6 ng/mL.

B15: C545 (antibody, V domains shown)
VH: EVQLLESGGGLVKPGGSLRLSCAASGFTFSDYSMTWVRQAPGKGLEWVSFISSSSTYIYYADSVKGRFTISRDNAKSSLYLQMNRLRAEDTAVYYCTRVQVGARGWADYWGQGTLVTVSS
VL: NFMLTQPLSVSESPGKTVTISCTRSSGSIASNYVQWYQQRPGGAPTTVIYEDTQRPSGVPDRFSGSIDSSSNSASLTISGLKTEDEADYYCQSCDTINWVFGGGTKLTVV
Regarding B15, the EC50 in test [1] turned out to be 3.68 ng/mL.

B16: C534 (antibody, V domains shown)
VH: QVQLVQSGAEVKKPGSSVRVSCKASGGTFSRNVISWVRQAPGQGLEWMGGIIPMFATANYAQKFQGRVTITADESSSTAYMELSSLRSEDTAVYYCAREDFILVSAPIRENSYYYYGMDVWGQGTTVTVSS
VL: EIVLTQSPGTLSLSPGERATLSCRASQSVSSNYLAWYQQKPGQAPRLLIYDASSRATGIPDRFSGSGSGTDFTLTISRLEPEDFAVYYCQQYGGSPRTFGQGTKVEIK
On to B16, for which, in test [1], the EC50 was determined as 4.85 ng/mL.

B17: C549 (antibody, V domains shown)
VH: QVQLVQSGAEVKKPGSSVKVSCKASGGTFSTSAISWVRQAPGQGLEWMGGIIPFFGTPNYAQKFQGRVTIIADESTTTAYMELSGLRFEDSAVYYCARREPYGPRDYYYFFGMDVWGPGTTVTVSS
VL: QSALTQPPFASASLGASVTLTCTLSSDYSYYKVDWYQQRPGKGPRFVIRVGPGGIVGSKGDGFPDRFSVLGSGLNRSLTINNIQEEDEGDYHCGADEGSGGTFVGVFGGGTKLTV
For B17, the EC50 in test [1] was 1.76 ng/mL.

B18: C542 (antibody, V domains shown)
VH: EVQLVESGGGLVQPGGSLRLSCAASGLTVTSNYMSWVRQAPGRGLEWVSLIYPGGTTYYADSVKGRFTVSRDNSKNTLYLQMDSLRAEDTGVYYCARETLGRGGDCWGQGTLVTVSS
VL: DIQMTQSPSSLSASVGDRVTITCQASQDISNFLNWYQQKPGKAPKLLIYDASNLETGVPSRFSGSRSGTDFTFTISSLQPDDIATYYCQQYDNLPRSFGQGTKLEIK
Turning to B18, the midpoint of the response in test [1], the EC50, lay at 1.07 ng/mL.

B19: C515 (antibody, V domains shown)
VH: EVQLVESGGGLVQPGGSLRLSCAASGFIVSSNYMSWVRQAPGKGLEWVSILYSGGSTYYADSVKGRFTISRDNSKNTLYLQMNSLRAEDTAVYYCARDLVVYGADYWGQGTLVTVSS
VL: DIQLTQSPSFLSASVGDRVTITCRASQGISSYLAWYQQKPGKAPKLLIYAASTLQSGVPSRFSGSGSGTEFTLTISSLQPEDFATYYCQQLNSYPPPFGGGTKVEIK
Regarding B19, the response in test [2] was half-maximal at 1.73 ng/mL (EC50).

B20: C077 (antibody, V domains shown)
VH: QVQLVQSGAEVKKPGASVKVSCKASGYTFTSYAMHWVRQAPGQRLEWMGWINTDNGNTKYSQKFQGRVTITRDTSASTAYMELSSLRSEDTAVYYCAREGALTNWFDPWGQGTLVTVSS
VL: SYELTQPPSVSVAPGQTARIPCGGNNIGSKSVHWYQQKPGQAPVLVVYDDSDRPSGIPERFSGSNSGNTATLTISRVEAGDEADYYCQVWDSSSDLHVVFGGGTKLTVL
Consider B20, for which the EC50 in test [2] is 45.9 ng/mL.

B21: C539 (antibody, V domains shown)
VH: EVQLVESGGGLVQPGRSLRLSCAASGFTFDDYALHWVRQAPGKGLEWVSGISWNGDSIGYADSVKGRFTISRDNAKNSLSLQMNSLTAEDTALYYCAKGVEYSSSSNCDYWGQGTLVTVSS
VL: DIQMTQSPSSVSASVGDRVTITCRASQDISSWLAWYQQKPGKAPKLLISLASGLQSGVPSRFSGSGSETDFTLTISSLQPEDFATYYCQQTNSFPLTFGGGTKVEI
B21 came in with an EC50 in test [1] of 1.3 ng/mL.

B22: C544 (antibody, V domains shown)
VH: QVQLVQSGAEVKKPGASVKVSCKASGYTFSSHDINWVRQATGQGLEWVGWMNPNSGNTGSAQSFQGRVTLTRNASISTAYLELSSLRSEDTAVYFCARGFSLTWYFDLWGRGTLVTVSS
VL: SYELTQPPSVSAAPGKTARITCGGNNIGGKNVHWYQQKPGQAPVLVVFDDSDRPSGIPERFSGSNSGNTATLTISRVEAGDEADYYCQLWDSTSDHPDVVFGGGTQLTVL
On to B22, for which the EC50 in test [1] amounted to 2.34 ng/mL.
